# In patent US20240124560A1:
# What was measured:
# Test in all cases: cell-based or functional assay
# [1] = target: HIV-1 Env of NAC_DH12 (HIV-1)
# [2] = target: HIV-1 Env of NAC_RHPA4.7 (HIV-1)
# [3] = target: HIV-1 Env of NIH-004_PVO.4 (HIV-1)
# [4] = target: HIV-1 Env of NIH-010_1054.07.TC4.1499 (HIV-1)
# [5] = target: HIV-1 Env of NIH-019_Du422.1 (HIV-1)
# [6] = target: HIV-1 Env of NIH-021_ZM214M.PL15 (HIV-1)
# [7] = target: HIV-1 Env of NIH-027_CAP45.G3 (HIV-1)
# [8] = target: HIV-1 Env of NIH-030_HIV-0013095.2.11 (HIV-1)
# [9] = target: HIV-1 Env of NIH-036_Ce2010 F5 (HIV-1)
# [10] = target: HIV-1 Env of NIH-042_ZM246F.D5 (HIV-1)
# [11] = target: HIV-1 Env of NIH-050_CNE21 (HIV-1)
# [12] = target: HIV-1 Env of NIH-051_CNE17 (HIV-1)
# [13] = target: HIV-1 Env of NIH-066_191084 B7.19 (HIV-1)
# [14] = target: HIV-1 Env of NIH-079_BJOX010000.06.2 (HIV-1)
# [15] = target: HIV-1 Env of NIH-080_BJOX025000.01.1 (HIV-1)
# [16] = target: HIV-1 Env of NIH-094_3817.v2.c59 (HIV-1)
# [17] = target: HIV-1 Env of NIH-095_6480.v4.c25 (HIV-1)
# [18] = target: HIV-1 Env of NIH-097_6811.v7.c18 (HIV-1)
# [19] = target: HIV-1 Env of NIH-100_6041.v3.c23 (HIV-1)
# [20] = target: HIV-1 Env of NIH-106_T250.4 (HIV-1)
# [21] = target: HIV-1 Env of NIH-108_T235.47 (HIV-1)
# [22] = target: HIV-1 Env of NIH-116_T263.8 (HIV-1)
# [23] = target: HIV-1 Env of isolate NIH-090_A07412M1.vrc12 (HIV-1)
# [24] = target: HIV-1 Env of pseudovirus NAC_92RW020 (HIV-1)
# [25] = target: HIV-1 Env of pseudovirus NAC_92TH021 (HIV-1)
# [26] = target: HIV-1 Env of pseudovirus NAC_HxB2 (HIV-1) (UniProt P04578)
# [27] = target: HIV-1 Env of pseudovirus NAC_JRCSF (HIV-1) (UniProt P20871)
# HIV-1 Env of pseudovirus NAC_JRCSF (HIV-1), sequence (P20871 32-848): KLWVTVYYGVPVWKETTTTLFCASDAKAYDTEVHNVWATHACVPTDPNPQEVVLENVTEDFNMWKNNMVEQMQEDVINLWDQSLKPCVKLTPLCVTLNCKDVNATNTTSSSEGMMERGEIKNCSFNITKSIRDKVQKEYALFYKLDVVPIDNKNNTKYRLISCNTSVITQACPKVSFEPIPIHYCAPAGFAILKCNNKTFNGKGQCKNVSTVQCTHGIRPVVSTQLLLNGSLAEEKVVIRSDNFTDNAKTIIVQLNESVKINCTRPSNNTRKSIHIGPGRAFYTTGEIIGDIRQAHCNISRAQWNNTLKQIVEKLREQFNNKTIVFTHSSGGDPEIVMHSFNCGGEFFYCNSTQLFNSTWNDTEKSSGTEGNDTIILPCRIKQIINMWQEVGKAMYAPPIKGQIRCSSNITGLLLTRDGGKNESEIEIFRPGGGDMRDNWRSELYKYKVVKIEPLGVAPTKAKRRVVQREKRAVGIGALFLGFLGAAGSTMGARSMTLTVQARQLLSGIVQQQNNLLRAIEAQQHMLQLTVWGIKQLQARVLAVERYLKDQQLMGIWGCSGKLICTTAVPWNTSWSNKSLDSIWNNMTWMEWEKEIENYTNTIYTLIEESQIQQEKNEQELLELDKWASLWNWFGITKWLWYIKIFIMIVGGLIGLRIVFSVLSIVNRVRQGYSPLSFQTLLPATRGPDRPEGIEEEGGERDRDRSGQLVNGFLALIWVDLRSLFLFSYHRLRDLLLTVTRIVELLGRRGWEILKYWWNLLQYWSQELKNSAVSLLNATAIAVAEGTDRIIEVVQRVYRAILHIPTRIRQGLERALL
# [28] = target: HIV-1 Env of pseudovirus NAC_TRJO.58 (HIV-1)
# [29] = target: HIV-1 Env of pseudovirus NIH-003_SC422661.8 (HIV-1)
# [30] = target: HIV-1 Env of pseudovirus NIH-009_1006.11.C3.1601 (HIV-1)
# [31] = target: HIV-1 Env of pseudovirus NIH-019_Du422.1 (HIV-1)
# [32] = target: HIV-1 Env of pseudovirus NIH-026_ZM135M.PL10a (HIV-1)
# [33] = target: HIV-1 Env of pseudovirus NIH-035_Ce1176 A3 (HIV-1)
# [34] = target: HIV-1 Env of pseudovirus NIH-036_Ce2010 F5 (HIV-1)
# [35] = target: HIV-1 Env of pseudovirus NIH-038_Ce1172 H1 (HIV-1)
# [36] = target: HIV-1 Env of pseudovirus NIH-043_ZM249M.B10 (HIV-1)
# [37] = target: HIV-1 Env of pseudovirus NIH-051_CNE17 (HIV-1)
# [38] = target: HIV-1 Env of pseudovirus NIH-059_Q461ENVe2 (HIV-1)
# [39] = target: HIV-1 Env of pseudovirus NIH-076_CNE5 (HIV-1)
# [40] = target: HIV-1 Env of pseudovirus NIH-080_BJOX025000.01.1 (HIV-1)
# [41] = target: HIV-1 Env of pseudovirus NIH-096_6952.v1.c20 (HIV-1)
# [42] = target: HIV-1 Env of pseudovirus NIH-097_6811.v7.c18 (HIV-1)
# [43] = target: HIV-1 Env of pseudovirus NIH-103_0815.v3.c3 (HIV-1)
# [44] = target: HIV-1 Env of pseudovirus NIH-104_3103.v3.c10 (HIV-1)
# [45] = target: HIV-1 Env of pseudovirus NIH-117_T278.5 (HIV-1)
# [46] = target: envelope protein of control pseudovirus NAC_VSV
substance,measurement,setting,value
4E10 (antibody),IC80 neutralization,[1],4.89 µg/mL
same,IC80 neutralization,[2],19.3 µg/mL
same,IC80 neutralization,[3],38.7 µg/mL
same,IC80 neutralization,[4],5.43 µg/mL
same,IC80 neutralization,[5],5.66 µg/mL
same,IC80 neutralization,[6],21.2 µg/mL
same,IC80 neutralization,[7],4.19 µg/mL
same,IC80 neutralization,[8],0.258 µg/mL
same,IC80 neutralization,[9],> 50 µg/mL
same,IC80 neutralization,[10],6.7 µg/mL
same,IC80 neutralization,[11],2.15 µg/mL
same,IC80 neutralization,[12],2.23 µg/mL
same,IC80 neutralization,[13],9.04 µg/mL
same,IC80 neutralization,[14],1.73 µg/mL
same,IC80 neutralization,[15],1.59 µg/mL
same,IC80 neutralization,[16],2.12 µg/mL
same,IC80 neutralization,[17],3.04 µg/mL
same,IC80 neutralization,[18],17 µg/mL
same,IC80 neutralization,[19],22.2 µg/mL
same,IC80 neutralization,[20],3.42 µg/mL
same,IC80 neutralization,[21],1.07 µg/mL
same,IC80 neutralization,[22],0.927 µg/mL
same,"IC80 (µg/ml), TZM-bl pseudovirus neutralization",[23],10.4 µg/mL
same,neutralization IC50,[24],2.14 µg/mL
same,neutralization IC50,[25],0.348 µg/mL
same,neutralization IC50,[26],0.021 µg/mL
same,neutralization IC50,[27],0.823 µg/mL
same,neutralization IC50,[28],2.97 µg/mL
same,neutralization IC50,[29],2.78 µg/mL
same,neutralization IC50,[30],5.66 µg/mL
same,neutralization IC50,[31],1.42 µg/mL
same,neutralization IC50,[32],0.133 µg/mL
same,neutralization IC50,[33],1.74 µg/mL
same,neutralization IC50,[34],14.4 µg/mL
same,neutralization IC50,[35],8.81 µg/mL
same,neutralization IC50,[36],1.11 µg/mL
same,neutralization IC50,[37],0.526 µg/mL
same,neutralization IC50,[38],2.33 µg/mL
same,neutralization IC50,[39],1.34 µg/mL
same,neutralization IC50,[40],0.377 µg/mL
same,neutralization IC50,[41],0.721 µg/mL
same,neutralization IC50,[42],2.74 µg/mL
same,neutralization IC50,[43],1.2 µg/mL
same,neutralization IC50,[44],8.11 µg/mL
same,neutralization IC50,[45],1.48 µg/mL
same,"IC50 (µg/ml), TZM-bl cell neutralization assay, control pseudovirus",[46],> 50 µg/mL
same,"IC80 (µg/ml), TZM-bl pseudovirus neutralization",[46],> 50 µg/mL
PGZL1 (antibody),IC80 neutralization,[1],19 µg/mL
same,IC80 neutralization,[2],> 50 µg/mL
same,IC80 neutralization,[3],> 50 µg/mL
same,IC80 neutralization,[4],20.2 µg/mL
same,IC80 neutralization,[5],30.5 µg/mL
same,IC80 neutralization,[6],> 50 µg/mL
same,IC80 neutralization,[7],> 50 µg/mL
same,IC80 neutralization,[8],0.113 µg/mL
same,IC80 neutralization,[9],> 50 µg/mL
same,IC80 neutralization,[10],> 50 µg/mL
same,IC80 neutralization,[11],17.8 µg/mL
same,IC80 neutralization,[12],48.6 µg/mL
same,IC80 neutralization,[13],> 50 µg/mL
same,IC80 neutralization,[14],6.6 µg/mL
same,IC80 neutralization,[15],29.3 µg/mL
same,IC80 neutralization,[16],> 50 µg/mL
same,IC80 neutralization,[17],> 50 µg/mL
same,IC80 neutralization,[18],> 50 µg/mL
same,IC80 neutralization,[19],> 50 µg/mL
same,IC80 neutralization,[20],> 50 µg/mL
same,IC80 neutralization,[21],6.62 µg/mL
same,IC80 neutralization,[22],8.18 µg/mL
same,"IC80 (µg/ml), TZM-bl pseudovirus neutralization",[23],> 50 µg/mL
same,neutralization IC50,[24],20.8 µg/mL
same,neutralization IC50,[25],2.12 µg/mL
same,neutralization IC50,[26],0.121 µg/mL
same,neutralization IC50,[27],13.4 µg/mL
same,neutralization IC50,[28],> 50 µg/mL
same,neutralization IC50,[29],16.8 µg/mL
same,neutralization IC50,[30],24.6 µg/mL
same,neutralization IC50,[31],7.51 µg/mL
same,neutralization IC50,[32],0.296 µg/mL
same,neutralization IC50,[33],31.7 µg/mL
same,neutralization IC50,[34],> 50 µg/mL
same,neutralization IC50,[35],0.948 µg/mL
same,neutralization IC50,[36],6.26 µg/mL
same,neutralization IC50,[37],12.4 µg/mL
same,neutralization IC50,[38],20.2 µg/mL
same,neutralization IC50,[39],24.6 µg/mL
same,neutralization IC50,[40],7.13 µg/mL
same,neutralization IC50,[41],0.89 µg/mL
same,neutralization IC50,[42],> 50 µg/mL
same,neutralization IC50,[43],18.7 µg/mL
same,neutralization IC50,[44],> 50 µg/mL
same,neutralization IC50,[45],23.5 µg/mL
same,"IC50 (µg/ml), TZM-bl cell neutralization assay, control pseudovirus",[46],> 50 µg/mL
same,"IC80 (µg/ml), TZM-bl pseudovirus neutralization",[46],> 50 µg/mL
VRC01 (antibody),IC80 neutralization,[1],0.898 µg/mL
same,IC80 neutralization,[2],0.137 µg/mL
same,IC80 neutralization,[3],0.79 µg/mL
same,IC80 neutralization,[4],3.62 µg/mL
same,IC80 neutralization,[5],> 50 µg/mL
same,IC80 neutralization,[6],2.42 µg/mL
same,IC80 neutralization,[7],10.1 µg/mL
same,IC80 neutralization,[8],0.058 µg/mL
same,IC80 neutralization,[9],0.625 µg/mL
same,IC80 neutralization,[10],43.7 µg/mL
same,IC80 neutralization,[11],0.848 µg/mL
same,IC80 neutralization,[12],0.904 µg/mL
same,IC80 neutralization,[13],0.188 µg/mL
same,IC80 neutralization,[14],7.79 µg/mL
same,IC80 neutralization,[15],24.8 µg/mL
same,IC80 neutralization,[16],> 50 µg/mL
same,IC80 neutralization,[17],0.054 µg/mL
same,IC80 neutralization,[18],0.558 µg/mL
same,IC80 neutralization,[19],0.087 µg/mL
same,IC80 neutralization,[20],> 50 µg/mL
same,IC80 neutralization,[21],0.084 µg/mL
same,IC80 neutralization,[22],0.505 µg/mL
same,"IC80 (µg/ml), TZM-bl pseudovirus neutralization",[23],0.216 µg/mL
same,neutralization IC50,[24],0.206 µg/mL
same,neutralization IC50,[25],0.324 µg/mL
same,neutralization IC50,[26],0.022 µg/mL
same,neutralization IC50,[27],0.172 µg/mL
same,neutralization IC50,[28],0.057 µg/mL
same,neutralization IC50,[29],0.124 µg/mL
same,neutralization IC50,[30],0.145 µg/mL
same,neutralization IC50,[31],> 50 µg/mL
same,neutralization IC50,[32],0.102 µg/mL
same,neutralization IC50,[33],1.25 µg/mL
same,neutralization IC50,[34],0.153 µg/mL
same,neutralization IC50,[35],> 50 µg/mL
same,neutralization IC50,[36],0.071 µg/mL
same,neutralization IC50,[37],0.219 µg/mL
same,neutralization IC50,[38],0.195 µg/mL
same,neutralization IC50,[39],0.059 µg/mL
same,neutralization IC50,[40],6.04 µg/mL
same,neutralization IC50,[41],0.025 µg/mL
same,neutralization IC50,[42],0.14 µg/mL
same,neutralization IC50,[43],0.019 µg/mL
same,neutralization IC50,[44],1.53 µg/mL
same,neutralization IC50,[45],> 50 µg/mL
same,"IC50 (µg/ml), TZM-bl cell neutralization assay, control pseudovirus",[46],> 50 µg/mL
same,"IC80 (µg/ml), TZM-bl pseudovirus neutralization",[46],> 50 µg/mL
